# Earlier results as cited in paper PMC11204982.
# Biological target: CD20 (Homo sapiens) (UniProt P11836)
# Chain of UniProt P11836 (P11836 whole entry): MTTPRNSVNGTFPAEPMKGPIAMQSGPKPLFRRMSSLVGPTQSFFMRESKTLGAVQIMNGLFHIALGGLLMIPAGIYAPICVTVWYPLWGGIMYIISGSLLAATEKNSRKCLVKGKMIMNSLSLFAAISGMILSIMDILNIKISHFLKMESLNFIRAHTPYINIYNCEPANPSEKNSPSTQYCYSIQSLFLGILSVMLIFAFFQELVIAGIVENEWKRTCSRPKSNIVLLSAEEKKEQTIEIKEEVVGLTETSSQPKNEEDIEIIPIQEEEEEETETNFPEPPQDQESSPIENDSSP
substance,measurement,value
rituximab,Kd,5.2 nM
